Data published in the supplement of paper PMC9732359.
± gives the uncertainty stated by the source.

Assay: protein stability index of a GFP-peptide fusion (yeast GPS) (PSI 1-4); higher = more stable; sorted into four equal gates, so the index is relative within each strain
Conditions: pdr5∆
Procedure, shortened: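 Tiled 17-residue yeast protein peptides were fused downstream of GFP in a plasmid that also expresses Cherry, and the pooled library was carried in yeast. Mid-log cultures in leucine-free medium were sorted into four equal gates by GFP/Cherry fluorescence ratio, and plasmids from each gate were PCR-amplified and Illumina-sequenced, with reads assigned to strains by barcodes. The protein stability index for each peptide was each gate's read frequency times its gate number, summed.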
VNGPNVHPGANYLLKRN [RPO31] showed a protein stability index of 3.21 ± 0.068. VNGRTKSNTIPVTSIPS [GAL11] showed a protein stability index of 2.87 ± 0.11. Sequence VNHLLLFAREIAKSQDK [DPB4] has a protein stability index of 2.85 ± 0.16. Work on VNQDKANNASQITPTVP [SNF12] yielded a protein stability index of 3.19 ± 0.081. VNQTGSTKKDTVQLTFL [YCG1] gave a protein stability index of 3 ± 0.16. In the case of VNSYRLNPNEYFSVTTA [SWI3], the protein stability index is reported as 2.84 ± 0.2. In the case of VNYNSDMIKCFLPKLNS [NUT1], the protein stability index is reported as 1.98 ± 0.12. Work on VNYRHFKAMEDVIAWKN [ITC1] yielded a protein stability index of 3.36 ± 0.17. For VPEMIGSVVGIYNGKAF [RPS15], the protein stability index was 1.34 ± 0.074. For VPHSHPSDMVIPDHLAE [SNF12], the protein stability index was 2.39 ± 0.047. Work on VPKHMLDKLDEILYYQI [AAR2] yielded a protein stability index of 3 ± 0.099. VPSFLRPDITMYCRPAP [GRR1] showed a protein stability index of 2.39 ± 0.045. VPTSIQTKRWPTMYTRL [SIN4] showed a protein stability index of 2.57 ± 0.05. With VPVIVKARFVSKLAEEK [RPL28] the protein stability index was 2.832 ± 0.024. With VPYVLMGQIATFIYFAY [COB] the protein stability index was 1.23 ± 0.1. Work on VQDLGSAISVTNVEDPL [SIR2] yielded a protein stability index of 1.97 ± 0.064. For VQDRGLSAVAQAESMKF [RPS3], the protein stability index was 3.16 ± 0.11. For VQELLKVLNEISKTTLT [RPN3], the protein stability index was 3.29 ± 0.074. VQGSTLAQLTSKLIPEV [RPS1A] gave a protein stability index of 2.96 ± 0.063. VQKQTRAGQRTRFKAVV [RPS2] showed a protein stability index of 3.35 ± 0.14. For VQKRDEVKEQLGILKKK [SMC4], the protein stability index was 3.01 ± 0.077. In the case of VQLLLHINSILLARVIQ [SNF11], the protein stability index is reported as 1.27 ± 0.076. Sequence VQQQQQQQLRNQIQRQQ [SNF5] has a protein stability index of 2.5 ± 0.12. For VQSGQIYINKSVPTNSA [RET1], the protein stability index was 3.32 ± 0.082. For VQSKARYTVRTFGIRRN [RPL11A], the protein stability index was 1.86 ± 0.073. Work on VQYLRSVQDLGGSATAR [YML031W/NDC1] yielded a protein stability index of 1.5 ± 0.069. Sequence VRAVNTGMEPGKTSFFQ [RPP0] has a protein stability index of 2.78 ± 0.15. In the case of VRDTSPHGISVFLSNLV [BRR2], the protein stability index is reported as 1.54 ± 0.077. In the case of VRGGNIEIMGILMGFTL [RRI1], the protein stability index is reported as 2.56 ± 0.092. For VRRGNRKRPVPKGATYG [RPL15A], the protein stability index was 3.27 ± 0.19. Work on VRSANEDGTFSVLYPDE [RRP43] yielded a protein stability index of 3.02 ± 0.088. Sequence VRTRGGNKKYRALRIET [RPS8A] has a protein stability index of 2.52 ± 0.03. VSALQMLKQHLFKYQGH [PUP1] showed a protein stability index of 2.71 ± 0.076. For VSDDESNGEVLEVGKNN [RPN14], the protein stability index was 2.99 ± 0.16. VSFRTHNSHLSLNYKFT [SRP21] gave a protein stability index of 2.99 ± 0.046. Work on VSGDAAALFRLHKFLTK [SWI3] yielded a protein stability index of 2.6 ± 0.15. For VSLPEGSFKRVKPQYDE [BRR2], the protein stability index was 3.09 ± 0.12. Sequence VSNENKKNIDYQNRSTR [RRI1] has a protein stability index of 3.04 ± 0.067. VSNPIRKVFKPSQGMVV [FAS1] gave a protein stability index of 2.74 ± 0.061. Sequence VSSKCNDIHLRFMRFLA [ECM29] has a protein stability index of 2.38 ± 0.06. With VSSTIPRETIPFLHLRK [FAS2] the protein stability index was 2.35 ± 0.13. In the case of VSTAAAATVRSTIRRLR [RPL43A], the protein stability index is reported as 2.8 ± 0.07. VSTKMHRTIVIRRAYLH [RPS11A] showed a protein stability index of 1.14 ± 0.054. Work on VSTPEKWDITTRNSNNL [BRR2] yielded a protein stability index of 3.19 ± 0.17. Sequence VTIASEIYYDPDPRSTV [RPO21] has a protein stability index of 2.86 ± 0.14. For VTIREQINIMPSLKAHF [SIR3], the protein stability index was 2.83 ± 0.075. In the case of VTKEYFQDVYDLTGSEP [FAS1], the protein stability index is reported as 2.82 ± 0.078. VTKQSELNSSEDILEDM [SMC1] showed a protein stability index of 3.25 ± 0.059. VTRLFFICSIIQTVVIS [YML031W/NDC1] gave a protein stability index of 1.28 ± 0.046. VTTKDDLSGADIQAMCT [RPT2] gave a protein stability index of 3.3 ± 0.09. With VTTNINWRSFNAKIIDA [SRP68] the protein stability index was 3 ± 0.083. With VTYALSGYVRSRGESDD [RPS21A] the protein stability index was 3.07 ± 0.29. VVAKKDFNQAKHEEIDT [RPS10A] showed a protein stability index of 2.54 ± 0.19. VVDGTVVSCSQHGFEVQ [RPB7] gave a protein stability index of 3.11 ± 0.058. VVDHHVENELLQVDVDI [RRP42] gave a protein stability index of 3.25 ± 0.21. For VVDPKTSIEKSSEILSY [YML103C/NUP188], the protein stability index was 1.43 ± 0.13. VVDVALKYPELSIKNSF [NUT1] showed a protein stability index of 2.94 ± 0.056. In the case of VVEKEKIESLAGGGESD [UBP6], the protein stability index is reported as 2.84 ± 0.24. VVIDAKDHLLGRLASTI [RPL16B] gave a protein stability index of 1.25 ± 0.07. For VVKASELDQFWQEYSSV [SRP14], the protein stability index was 2.9 ± 0.071. With VVLYNYYLGQYYGCLEN [CSN12] the protein stability index was 2.57 ± 0.15. VVNSNFAKEHNATVNLA [YJR042W/NUP85] gave a protein stability index of 2.32 ± 0.12. For VVPNEKADDDSVTIISA [ASC1], the protein stability index was 2.9 ± 0.082. VVQDSQTATQLLERGRL [SMC2] showed a protein stability index of 2.87 ± 0.08. Sequence VWDKFAVNLLNCPHSDS [SSN2] has a protein stability index of 2.81 ± 0.27. With VYAFKAKNKSTRINGLN [REC8] the protein stability index was 1.65 ± 0.094. WDLLQSGSQNISEFDSF [RPN12] showed a protein stability index of 3.14 ± 0.09. With WGGFPLDISVFLLEKAG [TAF14] the protein stability index was 3.38 ± 0.067. WKEVLAHNPELERYVKR [RPO31] gave a protein stability index of 3.85 ± 0.25. WKNLVLKLSQAFGSSAT [YJR042W/NUP85] showed a protein stability index of 1.95 ± 0.053. WKYEDVVAKLEDKRKVR [RPL16B] gave a protein stability index of 2.32 ± 0.059. With WMMNGALQILNSGIIPG [FAS2] the protein stability index was 1.86 ± 0.092. With WNLNQFQIEADFIGHNS [ASC1] the protein stability index was 2.7 ± 0.058. For WNRLTISVTDTEVERAK [COR1], the protein stability index was 3.12 ± 0.076. Sequence WTEASSSGAGTVKLYLP [ECM29] has a protein stability index of 1.82 ± 0.047. With YAIIINYTKDNEYYPMC [YCS4] the protein stability index was 1.44 ± 0.092. Sequence YAKEDAFSYPRMYEEAS [RPN2] has a protein stability index of 1.35 ± 0.082. Sequence YASKINRAEGPEELARI [RGR1] has a protein stability index of 3.26 ± 0.085. Work on YDEDPYGFEDESAPITA [RPB2] yielded a protein stability index of 3.18 ± 0.054. With YDGDTVTFSPTGRLFQV [PRE5] the protein stability index was 2.98 ± 0.12. For YDPKDALKNACNSIINK [RPB11], the protein stability index was 3.23 ± 0.14. In the case of YEAPRHGHLGFLPRKRA [RPL3], the protein stability index is reported as 3.03 ± 0.071. In the case of YEDSGSTYKHDRGIANI [SRB4], the protein stability index is reported as 3.29 ± 0.14. With YEFPIEGIEIYDRKKLP [RPC11] the protein stability index was 3.01 ± 0.094. Work on YEMVIREKNALKRLAWQ [ISW2] yielded a protein stability index of 2.5 ± 0.062. In the case of YEQHIENIEPLDPINLP [PRP8], the protein stability index is reported as 2.9 ± 0.091. For YFKSILLNKNTGNNLYD [SWI1], the protein stability index was 2.42 ± 0.036. Work on YFLRRQYILQIVSFIVN [YJL039C/NUP192] yielded a protein stability index of 1.38 ± 0.068. For YFRILLPYERHMISQEG [SWI1], the protein stability index was 1.54 ± 0.047. Work on YGGDGLDPLEMEGNAQP [RPO31] yielded a protein stability index of 3.43 ± 0.09. YGKLRNGMFCQVPSSLI [RRP4] showed a protein stability index of 2 ± 0.1. YGRDDMENIKKSIDSKT [ISW2] showed a protein stability index of 2.94 ± 0.1. For YHGNECEINYYEILLKI [SRB8], the protein stability index was 2.86 ± 0.082. Sequence YIDEMYNHNDGGDGRDY [RRI1] has a protein stability index of 3.26 ± 0.1. Sequence YILSLVSIKDSTGCVVG [YMR129W/POM152] has a protein stability index of 1.47 ± 0.047. With YISLLKLQGLYENIPIY [YDL116W/NUP84] the protein stability index was 1.42 ± 0.045. For YIYSQETKSWINESAEN [MED1], the protein stability index was 2.66 ± 0.039. With YKDVSDLIRSESMLHLS [IRR1] the protein stability index was 2.29 ± 0.054. YKHIDASGSINRKVLQA [RPS19A] gave a protein stability index of 3.27 ± 0.12. Work on YKVDAEGKVTKLRRECS [RPS31] yielded a protein stability index of 2.92 ± 0.14. YLCFILSTRAGGLGLNL [SNF2] gave a protein stability index of 2.04 ± 0.095.

Same assay, conditions: san1∆
VNDVEELGEIIDEDIGN [RMP1] gave a protein stability index of 2.98 ± 0.2.
